Article PMC6168491, “Sin3A recruits Tet1 to the PAH1 domain via a highly conserved Sin3-Interaction Domain” (Scientific Reports, 2018)
Like-named read-outs stand apart in the source and are kept apart here.

T1: PAH1(115–212) for NMR (UniProt Q60520 115-212)
T1 construct: Sin3A PAH1 domain, residues 115–212; Same construct as m29; also called apo-PAH1; 15N-labelled PAH1(115–212); source: 15N labelled in M9 minimal media
T1 sequence (looked up): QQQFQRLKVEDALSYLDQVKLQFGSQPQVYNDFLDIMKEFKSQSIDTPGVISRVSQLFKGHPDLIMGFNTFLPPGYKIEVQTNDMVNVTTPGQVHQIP


Biological target: T1, PAH1(115–212) for NMR
Assay: NMR titration; 15N-HSQC of 150 µM 15N-labelled PAH1(115–212) with 150 µM unlabelled Tet1(878–911) (1:1; also sub-stoichiometric ratio); 303 K; 20 mM Tris-HCl pH 7.4, 50 mM NaCl, 1 mM DTT; average minimal shift analysis

| Molecule | Δδmin (average minimal shift, relative to the WT complex) (both partners purified) | other results |
| --- | --- | --- |
| Tet1-SID(878–911) L897A for NMR (from UniProt Q3URK3 861-894) (domain or fragment) |  | Δδmin (average minimal shift, relative to the WT complex): 0.118; Δδmin (average minimal shift, relative to the apo-protein): 0.061 |
| LSLMKDRRLTLEQVVAIEALTQLSEAPSESSSPS (domain or fragment, UniProt Q3URK3 861-894, looked up, Same construct as m24; also called WT) [Tet1-SID(878–911) for NMR] |  | Kd (both partners purified): < 100 nM |
| LSLMKDRRLTLEQVVAIEALEQLSEAPSESSSPS (domain or fragment, UniProt Q3URK3 861-894, looked up, Tag removal for NMR was conducted as needed) [Tet1-SID(878–911) T898E for NMR] | 0.038 |  |
| LSLMKDRRLTLEQVVAIEALTQASEAPSESSSPS (domain or fragment, UniProt Q3URK3 861-894, looked up, Tag removal for NMR was conducted as needed) [Tet1-SID(878–911) L900A for NMR] | 0.074 |  |
| LSLMKDRRLTLEQVVAIEALAQLSEAPSESSSPS (domain or fragment, UniProt Q3URK3 861-894, looked up, Tag removal for NMR was conducted as needed) [Tet1-SID(878–911) T898A for NMR] | 0.026 |  |
| LSLMKDRRLTLEQVVAAEALTQLSEAPSESSSPS (domain or fragment, UniProt Q3URK3 861-894, looked up, Tag removal for NMR was conducted as needed) [Tet1-SID(878–911) I894A for NMR] | 0.061 |  |
